# Laboratory results reported in paper PMC6344521.
# T1: nucleoprotein (NP) of influenza A, prototype human isolate A/Wilson-Smith/1933 (influenza A virus (strain A/Wilson-Smith/1933)), P15682
# T1 chain: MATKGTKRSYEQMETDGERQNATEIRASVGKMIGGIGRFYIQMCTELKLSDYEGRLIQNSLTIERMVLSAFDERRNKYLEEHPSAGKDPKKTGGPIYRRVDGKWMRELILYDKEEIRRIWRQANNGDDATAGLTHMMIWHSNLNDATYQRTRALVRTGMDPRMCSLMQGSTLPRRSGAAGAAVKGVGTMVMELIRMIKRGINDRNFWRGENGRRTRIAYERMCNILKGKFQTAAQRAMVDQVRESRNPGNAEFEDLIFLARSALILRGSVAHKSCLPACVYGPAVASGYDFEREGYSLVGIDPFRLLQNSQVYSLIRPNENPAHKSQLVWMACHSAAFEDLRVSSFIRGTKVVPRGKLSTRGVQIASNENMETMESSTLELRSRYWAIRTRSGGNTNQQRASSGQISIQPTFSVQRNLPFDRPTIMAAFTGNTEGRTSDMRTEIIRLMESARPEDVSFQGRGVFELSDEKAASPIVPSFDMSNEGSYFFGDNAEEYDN
# B1: nucleoprotein (NP) of influenza A, prototype human isolate A/Wilson-Smith/1933, P15682 1-498 (natural protein)
# chain: T1 chain
# Key:
# [1] = target: OVX836, NP of influenza A (A/Wilson-Smith/1933) fused through its C-terminus to the oligomerization domain OVX313 (influenza A virus (strain A/Wilson-Smith/1933)); test: SEC
# [2] = target: OVX836, NP of influenza A (A/Wilson-Smith/1933) fused through its C-terminus to the oligomerization domain OVX313 (influenza A virus (strain A/Wilson-Smith/1933)); test: reversed-phase chromatography (RP-UHPLC)
# [3] = target: T1, nucleoprotein (NP) of influenza A, …; test: SEC; settings: remark: other sources report otherwise
Molecule,stoichiometry N [1],stoichiometry N [2],stoichiometry N [3]
"OVX836, NP of influenza A (A/Wilson-Smith/1933) fused through its C-terminus to the oligomerization domain OVX313",7,7,–
B1,–,–,3
